Laboratory results reported in PMC10362042.
Where “and” joins values, the source holds several entries; their conditions need not be identical. Equal entries are not always repeated. Where two headings read alike, the source gives them in different places.

Tests used:
Assay in all cases: SPR
[1] = target: Pig ACE2 (pig)
[2] = target: Goat ACE2 (goat)
[3] = target: Pig ACE2 (pig); remark: listed apart in the source
[4] = target: Rabbit ACE2 (rabbit)
[5] = target: Sheep ACE2 (sheep)
[6] = target: Dog ACE2 (dog)

Question: With “SARS-CoV-2 Omicron BA.2 RBD (residues 319-541) (from UniProt P0DTC2 319-541) (domain or fragment)” as the substance, how does the Kd [1] read?
Answer: The Kd was 654 nM and 662 nM.

Question: And the Kd [2]?
Answer: The Kd was 111 nM and 102 nM and 106 nM (2×).

Question: What about the Kd [3] of the same substance?
Answer: The Kd was 719 nM and 678 nM.

Question: And the Kd [4]?
Answer: The Kd was 76.3 nM and 53.8 nM and 59.3 nM.

Question: What does the source list for “SARS-CoV-2 Omicron BA.1 RBD (residues 319-541) (from UniProt P0DTC2 319-541) (domain or fragment)”?
Answer: Kd [5]: 62 nM and 66.8 nM and 71.5 nM; Kd [2]: 174 nM and 180 nM (2×) and 188 nM; Kd [4]: 60 nM and 43.7 nM

Question: “SARS-CoV-2 Omicron BA.4/5 RBD (residues 319-541) (from UniProt P0DTC2 319-541) (domain or fragment)” was tested. Which Kd [1] did it give?
Answer: Its Kd is 6.1 nM and 7.2 nM and 8 nM.

Question: And the Kd [2]?
Answer: The Kd was 29.1 nM and 26.2 nM and 25.3 nM.

Question: What about the Kd [6] of the same substance?
Answer: Its Kd is 211 nM and 146 nM and 186 nM.
